B1: #2: anti-BAP42 sdAb, SEQ ID NO: 1 (antibody, V domains shown)
VL: ELVMTQTPSPVSAAVGGTVSISCQSSKSVYNNNWLSWFQQKPGQPPKLLIYSASTLASGVSSRFKGSGSGTQFTLTISDVQCDDAATYYCQGEFDCSGDCNVFGGGTELEIL
B2: #20: anti-BAP42 sdAb, SEQ ID NO: 2 (protein)
VHH: ELDLTQTPSSKSVPVGDTVTINCQASESVYSNNRLAWFQQKPGQPPKLLIYYASTLASGVPSRFKGSGSGTQFTLTISDVVCDDAATYYCAGYKSSTSDGIAFGGGTEVVVK
modifications: /note=“Description of Unknown rabbit immunoglobulin VL domain polypeptide”; /note=“#20”
B3: #26: anti-BAP42 sdAb, SEQ ID NO: 18 (antibody, V domains shown)
VL: ELDLTQTPSPVSAAVGGTVTISCQSSESVYSNNRLAWYQQKPGQPPKLLIYLASSLASGVPSRFKGSGSGTQFTLTIRDLECDDAATYYCLGYRSGSDGDAFGGGTELEIL

Legend:
[1] = CAT-fusion assay: chloramphenicol resistance as measure of sdAb stability; format: cell-based, E. coli
Text: Clones were further selected for stability using a modified CAT-fusion assay, as previously described (see, e.g., WO 2008/136694 to Goncalves et al). Specifically, the CAT gene was amplified from pCAT (Stratagene) by PCR and inserted into pET-derived plasmid using EcoRI and SphI restriction sites to create the pE-CAT. The 5′PCR primer originally used to clone the variable domains was also designed to contain two sequential and different SfiI cloning sites, and an amber codon (TAG) just before the beginning of the CAT gene.
To clone single-domain antibody libraries fused into the CAT gene, SDVL fragments were generated by PCR from phagemid vectors selected by panning. The resulting SDVL PCR fragments were gel-purified, digested with the restriction endonuclease SfiI, and cloned independently into the appropriately SfiI-cut vector pE-CAT. The pSDVL-CAT constructs were under the control of the strong Lac promoter that also included an N-terminal His6 affinity tag and the ampicillin resistance gene. Alternatively, SDVL fragments may be cloned into readily available vectors designed to express cloned sequences as fusion proteins with CAT, e.g., the PCFN1 vector (see Maxwell, et al (1999) J Prot Sci 8:1908-1911, incorporated by reference in its entirety).
Chloramphenicol resistance assays were performed by transforming ER2783 cells (New England Biolabs, Inc) with each single domain CAT-fusion library. The transformation mixtures were inoculated into 5 mL of SOC and incubated at 37° C. for 1 hour. Next, 10 mL of SB medium with 3 μL of 100 mg/ml ampicillin was added to each library. A total of 15 mL of each culture was shaken for 1 hour at 37° C. Subsequently, 4.5 μL of 100 mg/ml ampicillin was added and cultures shaken for one hour at 37° C. Then 85 mL of SB medium with 85 μL of 100 mg/ml ampicillin was added and cultures grown overnight at 37° C. The following day, 600 μL of each culture was used to inoculate 20 mL of SB medium containing 100 μg/mL of ampicillin.
Expression of CAT-fusion single domain proteins was induced by addition of 0.5 mM IPTG when the optical density of cultures reached 0.9 (at […]). After 2 hours of incubation at 37° C., 100 μL aliquots of each library were plated on agar plates with IPTG (200 μg/mL) and various concentrations of chloramphenicol. Plates were incubated at 37° C. for 16-20 hours. The level of resistance was quantified as the highest level of chloramphenicol at which colonies appeared after the 37° C. incubation period. […] Results are shown in Table 6, below, where +++ indicates over 600 colonies detected; ++ indicates 400-600 colonies detected; + indicates 1-399 colonies detected; and − indicates no colonies detected at the corresponding chloramphenicol concentration. “sdAb2”, “sdAb6”, “sdAb20”, and “sdAb26” are sdAb candidates that bind BAP42 oligomers.

[2] = design: species or system CD1 mice; conditions: mouse, in vivo
Protocol: The different antibody-peptide constructs were used in biodistribution assays, and results compared with the biodistribution of the respective DEN2C peptides (pepH1, pepH2, pepH3, and pepM′, chemically synthesized). […] After expression and purification, the sdAbs and sdAb-peptide constructs were conjugated to technetium (^99Tc) and a biodistribution assay was performed, as previously described.
Tables 14-16 show the biodistribution of different anti-BAP42 sdAbs and constructs thereof with different peptides (“pepH3”).

oligomeric form of BAP42 = target: T1, oligomeric form of BAP42 (Homo sapiens, UniProt P05067); assay: BIAcore binding profile to BAP42 oligomers
T1 construct: “beta-amyloid peptide 42”, or “beta-amyloid peptide 1-42”; oligomerised in house (1 mg/mL, stirring 16 h at 37 °C, retained on 5 kDa filter)
Text: Anti-oligomer sdAbs where characterized further regarding their relative binding profile to BAP42 oligomers by BIAcore.
Results are showing in FIGS. 16A-16D, respectively (kinetic studies) and Tables 14-16, respectively (biodistribution studies), presented below.

[3] = 10^0, [chloramphenicol] 0.03 mM
[4] = 10^0, [chloramphenicol] 0.06 mM
[5] = 10^0, [chloramphenicol] 0.25 mM
[6] = 10^0, [chloramphenicol] 0.31 mM
[7] = 10^0, [chloramphenicol] 0.62 mM
[8] = 10^0, [chloramphenicol] 1.24 mM
[9] = 10^0, [chloramphenicol] 1.86 mM
[10] = 10^0, [chloramphenicol] 2.48 mM
[11] = 10^−2, [chloramphenicol] 0.03 mM
[12] = 10^−2, [chloramphenicol] 0.06 mM
[13] = 10^−2, [chloramphenicol] 0.25 mM
[14] = 10^−2, [chloramphenicol] 0.31 mM
[15] = 10^−2, [chloramphenicol] 0.62 mM
[16] = 10^−2, [chloramphenicol] 1.24 mM
[17] = 10^−2, [chloramphenicol] 1.86 mM
[18] = 10^−2, [chloramphenicol] 2.48 mM

T1 sequence (P05067 672-713 limits assumed): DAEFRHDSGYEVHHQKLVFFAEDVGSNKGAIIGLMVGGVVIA

Molecule	colonies detected (CAT-fusion chloramphenicol resistance) [1, 3]	colonies detected (CAT-fusion chloramphenicol resistance) [1, 4]	colonies detected (CAT-fusion chloramphenicol resistance) [1, 5]	colonies detected (CAT-fusion chloramphenicol resistance) [1, 6]	colonies detected (CAT-fusion chloramphenicol resistance) [1, 7]	colonies detected (CAT-fusion chloramphenicol resistance) [1, 8]	colonies detected (CAT-fusion chloramphenicol resistance) [1, 9]	colonies detected (CAT-fusion chloramphenicol resistance) [1, 10]	colonies detected (CAT-fusion chloramphenicol resistance) [1, 11]	colonies detected (CAT-fusion chloramphenicol resistance) [1, 12]	colonies detected (CAT-fusion chloramphenicol resistance) [1, 13]	colonies detected (CAT-fusion chloramphenicol resistance) [1, 14]	colonies detected (CAT-fusion chloramphenicol resistance) [1, 15]	colonies detected (CAT-fusion chloramphenicol resistance) [1, 16]	colonies detected (CAT-fusion chloramphenicol resistance) [1, 17]	colonies detected (CAT-fusion chloramphenicol resistance) [1, 18]	factor by which washout from the brain is slowed on linking to delivery peptide pepH3 [2]	factor of increase of presence in the brain on linking to delivery peptide pepH3 [2]	binding profile to the oligomeric form of BAP42 (oligomeric form of BAP42)
B1	+++ (+++ indicates over 600 colonies detected)	+++ (+++ indicates over 600 colonies detected)	+++ (+++ indicates over 600 colonies detected)	+++ (+++ indicates over 600 colonies detected)	+++ (+++ indicates over 600 colonies detected)	+++ (+++ indicates over 600 colonies detected)	+++ (+++ indicates over 600 colonies detected)	++ (++ indicates 400-600 colonies detected)	+++ (+++ indicates over 600 colonies detected)	+++ (+++ indicates over 600 colonies detected)	+++ (+++ indicates over 600 colonies detected)	+++ (+++ indicates over 600 colonies detected)	+++ (+++ indicates over 600 colonies detected)	+++ (+++ indicates over 600 colonies detected)	− (− indicates no colonies detected)	− (− indicates no colonies detected)	about 2	about 3	best binding profiles
B2	+++ (+++ indicates over 600 colonies detected)	+++ (+++ indicates over 600 colonies detected)	+++ (+++ indicates over 600 colonies detected)	+++ (+++ indicates over 600 colonies detected)	+++ (+++ indicates over 600 colonies detected)	+++ (+++ indicates over 600 colonies detected)	+++ (+++ indicates over 600 colonies detected)	++ (++ indicates 400-600 colonies detected)	+++ (+++ indicates over 600 colonies detected)	+++ (+++ indicates over 600 colonies detected)	+++ (+++ indicates over 600 colonies detected)	+++ (+++ indicates over 600 colonies detected)	+++ (+++ indicates over 600 colonies detected)	+++ (+++ indicates over 600 colonies detected)	− (− indicates no colonies detected)	− (− indicates no colonies detected)	–	–	best binding profiles
B3	+++ (+++ indicates over 600 colonies detected)	+++ (+++ indicates over 600 colonies detected)	+++ (+++ indicates over 600 colonies detected)	+++ (+++ indicates over 600 colonies detected)	+++ (+++ indicates over 600 colonies detected)	+++ (+++ indicates over 600 colonies detected)	+++ (+++ indicates over 600 colonies detected)	++ (++ indicates 400-600 colonies detected)	+++ (+++ indicates over 600 colonies detected)	+++ (+++ indicates over 600 colonies detected)	+++ (+++ indicates over 600 colonies detected)	+++ (+++ indicates over 600 colonies detected)	+++ (+++ indicates over 600 colonies detected)	+++ (+++ indicates over 600 colonies detected)	− (− indicates no colonies detected)	− (− indicates no colonies detected)	–	–	best binding profiles

Source: patent US10654917B2, “Antibody molecules and peptide delivery systems for use in alzheimer's disease and related disorders” (TECHNOPHAGE, INVESTIGAÇĀO E DESENVOLVIMENTO EM …, priority 2015, dated 2020)
